Measured values: paper PMC6800434, “Assessment of glucagon receptor occupancy by Positron Emission Tomography in non-human primates” (Scientific Reports, 2019)
“And” between values parts separate entries of the source, which are not always exact repeats. Equal values may be shown once. Positions of bridges follow the written chain, without caps; N, C: chain ends. Non-standard residues stand in square brackets, D forms with d. Residues, ends and D or L forms follow the SMILES beside them. *: point of attachment. DO3A(CH2CH2SO2CH2CH2) = O=C(O)CN1CCN(CCS(=O)(=O)CC*)CCN(CC(=O)O)CCN(CC(=O)O)CC1; Ala(4-thiazolyl) = N[C@@H](Cc1cscn1)C(=O)O

Legend:
[1] = tested on: NHP spleen sections; experiment: In vitro autoradiography of spleen sections; type: binding; settings: 10 µM GCG or 1 µm DO3A-S01-GCG precursor, 60 min RT, n = 3
Procedure: (§1) Splenic binding of [^68Ga]Ga-DO3A-S01-GCG was previously observed in rat in vivo[5]. This assay was performed to elucidate if splenic binding in human and NHP in vivo would be expected.
(§2) Spleen tissue was collected post-mortem from the NHP and Sprague Dawley rat. Biopsies from donor human spleen were obtained from Uppsala Biobank (sample collection 827) and approved by local ethical review board (Drn 2016/465).
(§3) The splenic biopsies were processed to 10 µm frozen tissue sections by a cryotome. The sections were pre-incubated in phosphate-buffered saline (PBS) (pH 7.4, 1% Bovine Serum Albumin (BSA)) for 10 min at room temperature (RT). Then, the sections were incubated with 5 nM [^68Ga]Ga-DO3A-S01-GCG in […] PBS (pH 7.4, 1% BSA), either alone or in the presence of 10 µM GCG or 1 µm DO3A-S01-GCG precursor for 60 min at RT.
(§4) After incubation, the sections were washed three times, first with assay buffer (PBS pH 7.4 1% BSA) and then twice with PBS for 1 minute. Sections were carefully dried at 37 °C and then exposed against a digital phosphorimager plate, together with a 20 µl reference from the buffer calibrated against a gamma-counter to enable quantification to fmol bound radioligand/mm^3. The phosphorimager plates were scanned using a Cyclone Plus Phosphor imager (Perkin Elmer) at 600 dpi, and the resulting autoradiograms analysed by ImageJ (NIH, Bethesda). […]

[2] = tested on: human spleen sections; experiment: In vitro autoradiography of spleen sections; type: binding; settings: 10 µM GCG or 1 µm DO3A-S01-GCG precursor, 60 min RT, n = 3
Procedure: as §1, §2, §3, §4

[3] = tested on: rat spleen sections; experiment: In vitro autoradiography of spleen sections; type: binding, Sprague Dawley rat; settings: 10 µM GCG or 1 µm DO3A-S01-GCG precursor, 60 min RT, n = 3
Procedure: as §1, §2, §3, §4

[4] = In vivo metabolic stability in venous plasma (radio-HPLC); parameters: species or system cynomolgus monkeys; settings: NHP in vivo, n = 3
Procedure: For NHP 5–7, venous blood samples were taken at 5, 30 and 60 min for assessment of in vivo metabolic stability of [^68Ga]Ga-DO3A-S01-GCG, using HPLC methods described below. The percentage of intact [^68Ga]Ga-DO3A-S01-GCG was plotted against time from administration and fitted to a mono-exponential function.
Blood samples were centrifuged at 4000 rpm for 2 minutes at 4 °C (Beckman Allegra X-22R Centrifuge, Palo Alto, USA). From the plasma, 0.5 ml was taken and an equal volume of acetonitrile was added to precipitate the proteins. The mixture was centrifuged at 13200 rpm at 4 °C for 1 min (Eppendorf 5415 R centrifuge, Eppendorf AG, Hamburg, Germany). The supernatant was filtered through a 0.2 μm nylon membrane (Corning Incorporated, Corning, NY, USA) by centrifugation at 13200 rpm at 4 °C for 1 min. 500 µl of the filtered supernatant was diluted with 1500 µl H2O; thereafter, 30 µl of 0.01 mM unlabelled DO3A-S01-GCG was added to the mixture. The sample preparation recovery was determined by measuring the radioactivity in the plasma, filters and pellet.
HPLC analysis was performed using a binary pump system (Gilson, Middleton, USA). The sample (1.8 ml) was injected using an automated solid phase extraction controller (ASPEC Gilson) connected to a dilutor (Gilson). The separation was performed on an Xbridge Prep BEH130 C18 (peptide separation technology) 250 mm × 10 mm, 5 µm with a 10 × 10 mm C18 security guard from the same supplier. The HPLC system was operated at a flow rate of 6 ml/min. The mobile phase consisted of 0.1% TFA in MilliQ: 0.1% TFA in Acetonitrile. Gradient elution mode was used for the separation (Gradient: 0–7 min: 5–70%, 7–12 min: 70%, 12–13 min: 70–5%, 13–15 min: 5%).
A second method was developed with a lesser gradient, to determine if any metabolites were co-eluting with the DO3A-S01-GCG peak. A UV detector (Gilson) was used to detect unlabelled DO3A-S01-GCG at 220 nm. […] Six fractions were collected, and the radioactivity in the fractions was measured by a well-type scintillation counter. […]

[5] = Human predicted radiation dosimetry extrapolated from NHP biodistribution (OLINDA/EXM 1.1)
Procedure: The predicted dosimetry of [^68Ga]Ga-DO3A-S01-GCG in human males was estimated based on the in vivo biodistribution in NHPs as captured by dynamic PET examinations. The baseline PET examinations in NHP 2–7 (n=6) were averaged for the dosimetry analysis. […] However, the uptake in the brain in NHP is likely negligible based on observations in rat (5) as well as a whole-body PET/CT examination performed on NHP1 90–120 minutes post [^68Ga]Ga-DO3A-S01-GCG administration.
The dosimetry calculations were performed as described previously for [^68Ga]Ga-DO3A-VS-Cys^40-Exendin4[4] and [^68Ga]Ga-DO3A-S01-GCG in rat[5].
In brief, dynamic NHP organ uptake as measured by PET and expressed as SUV was normalised to that of human organs (using tissue weights of whole-body adult reference phantoms). The decay-corrected and normalized SUVs were back-corrected to count rates to calculate the actual radiation burden in each tissue. The tissue residence times (MBq-h/MBq) were assessed by trapezoidal approximation of the un-decay corrected human SUV biodistribution data. The tissue washout from the last time point (90 minutes) until infinity was estimated by a single mono-exponential fit.
The estimation of the absorbed dose was performed by the OLINDA/EXM 1.1 software, where the calculations were based on the adult reference male or female phantoms to obtain the absorbed dose estimate in humans (ICRP60). The organ specific doses are reported as mGy/MBq (effective dose as mSv/MBq). The amount of MBq that can be safely administered annually (MBq/year) was calculated for each organ as well as the effective dose, by dividing the limiting dose (10 mSv/year for the effective dose, 150 mGy/year for all tissues except for red marrow with 50 mGy/year) by the dose (mGy/MBq or mSv/MBq).

[6] = extrapolated from NHP 2-7 baseline PET (n = 6)

Effect of co-incubation on [68Ga]Ga-DO3A-S01-GCG binding in NHP spleen sections [1]	Effect of co-incubation on [68Ga]Ga-DO3A-S01-GCG binding in human spleen sections [2]	Blocking of [68Ga]Ga-DO3A-S01-GCG binding in rat spleen sections by co-incubation [3]	Compound	Intact radioligand in venous plasma ([4]; 5 minutes after administration) [%]	Intact radioligand in venous plasma ([4]; 30 minutes after administration) [%]	Intact radioligand in venous plasma ([4]; 60 minutes after administration) [%]	Human predicted absorbed dose, heart wall (myocardium) [5, 6] [mGy/MBq]	Human predicted absorbed dose, kidneys [5, 6] [mGy/MBq]	Human predicted absorbed dose, liver [5, 6] [mGy/MBq]	Human predicted absorbed dose, red marrow [5, 6] [mGy/MBq]	Human predicted effective dose [5, 6] [µSv/MBq]	Annual limit of administered radioactivity, effective dose limiting ([5]; limit 10 mSv/year) [MBq]	Annual exposure limit from red marrow absorbed dose ([5]; limit 50 mGy/year) [MBq]	Annual administration allowed by critical organ kidney ([5]; limit 150 mGy/year)
not affected	not affected	could be blocked	glucagon	–	–	–	–	–	–	–	–	–	–	–
–	–	–	CC[C@H](C)[C@H](NC(=O)[C@H](Cc1ccccc1)NC(=O)[C@H](CCC(=O)O)NC(=O)[C@@H]1CCCCNC(=O)CC[C@H](NC(=O)[C@H](CC(=O)O)NC(=O)[C@H](CC(C)C)NC(=O)[C@H](CCC(N)=O)NC(=O)[C@H](CCCCN)NC(=O)[C@H](CO)NC(=O)[C@H](Cc2ccc(O)cc2)NC(=O)[C@H](CC(=O)O)NC(=O)[C@H](CO)NC(=O)[C@@H](NC(=O)[C@H](Cc2ccccc2)NC(=O)[C@@H](NC(=O)CNC(=O)[C@H](CCC(N)=O)NC(=O)[C@@H](CO)NC(=O)[C@@H](N)Cc2cscn2)[C@@H](C)O)[C@@H](C)O)C(=O)N[C@@H](CCC(N)=O)C(=O)N[C@@H](CCCNC(=N)N)C(=O)N[C@@H](C)C(=O)N1)C(=O)N[C@@H](CCC(=O)O)C(=O)N[C@@H](Cc1c[nH]c2ccccc12)C(=O)N[C@@H](CC(C)C)C(=O)N[C@@H](CC(C)C)C(=O)N[C@@H](C)C(=O)N[C@H](C(=O)NCC(=O)N1CCC[C@H]1C(=O)N[C@@H](CCC(=O)O)C(=O)N[C@@H](CO)C(=O)NCC(=O)N[C@@H](C)C(=O)N1CCC[C@H]1C(=O)N1CCC[C@H]1C(=O)N1CCC[C@H]1C(=O)N[C@@H](CO)C(=O)N[C@@H](CSCCS(=O)(=O)CCN1CCN(CC(=O)O)CCN(CC(=O)O)CCN(CC(=O)O)CC1)C(N)=O)[C@@H](C)O [[^68Ga]Ga-DO3A-S01-GCG, metal not drawn] (H-[Ala(4-thiazolyl)][dS]QGTFTSDYSKQLDEQRAKEFIEWLLATGPESGAPPPSC(DO3A(CH2CH2SO2CH2CH2))-NH2; lactam 16-20)	95.9 ± 1.2	89.0 ± 2.7	80.3 ± 3.3	0.10	0.29	0.049	0.039	20.6	485	> 1000	519 MBq and > 500 MBq
